We go through 16 molecules from PMC3981819, “Signaling Properties and Pharmacological Analysis of Two Sulfakinin Receptors from the Red Flour Beetle, Tribolium castaneum” (PLoS ONE, 2014).

Square brackets hold non-standard residues; d marks the D form. Ends that are not written are not given here. * marks the point of attachment. SO3H = sulfate on Tyr (sulfated tyrosine), O=S(=O)(O)*; sY = N[C@@H](Cc1ccc(OS(=O)(=O)O)cc1)C(=O)O; pGlu = O=C1CC[C@@H](C(=O)O)N1

Sequences and labels used below:
B1: 1567[φ1]wp-5 (peptide)
peptide: SPVD[sY]DRPIMAF-NH2
modifications: N-terminus assumed
SMILES: CC[C@H](C)[C@H](NC(=O)[C@@H]1CCCN1C(=O)[C@H](CCCNC(=N)N)NC(=O)[C@H](CC(=O)O)NC(=O)[C@H](Cc1ccc(OS(=O)(=O)O)cc1)NC(=O)[C@H](CC(=O)O)NC(=O)[C@@H](NC(=O)[C@@H]1CCCN1C(=O)[C@@H](N)CO)C(C)C)C(=O)N[C@@H](CCSC)C(=O)N[C@@H](C)C(=O)N[C@@H](Cc1ccccc1)C(N)=O
B2: 1678B[φ1]wp-6 (peptide)
peptide: DG[sY]RPLQF-NH2
modifications: N-terminus assumed
SMILES: CC(C)C[C@H](NC(=O)[C@@H]1CCCN1C(=O)[C@H](CCCNC(=N)N)NC(=O)[C@H](Cc1ccc(OS(=O)(=O)O)cc1)NC(=O)CNC(=O)[C@@H](N)CC(=O)O)C(=O)N[C@@H](CCC(N)=O)C(=O)N[C@@H](Cc1ccccc1)C(N)=O
B3: 1569[φ2]wp-4 (peptide)
peptide: PVD[sY]DRPIMAF-NH2
modifications: N-terminus assumed
SMILES: CC[C@H](C)[C@H](NC(=O)[C@@H]1CCCN1C(=O)[C@H](CCCNC(=N)N)NC(=O)[C@H](CC(=O)O)NC(=O)[C@H](Cc1ccc(OS(=O)(=O)O)cc1)NC(=O)[C@H](CC(=O)O)NC(=O)[C@@H](NC(=O)[C@@H]1CCCN1)C(C)C)C(=O)N[C@@H](CCSC)C(=O)N[C@@H](C)C(=O)N[C@@H](Cc1ccccc1)C(N)=O
B4: 2010[φ1]wp-1 (peptide)
peptide: DYGHMRF-NH2
modifications: ends and bridges not checked
B5: 1679[φ1]wp-4 (peptide)
peptide: [pGlu]PS[sY]DRDIMSF-NH2
SMILES: CC[C@H](C)[C@H](NC(=O)[C@H](CC(=O)O)NC(=O)[C@H](CCCNC(=N)N)NC(=O)[C@H](CC(=O)O)NC(=O)[C@H](Cc1ccc(OS(=O)(=O)O)cc1)NC(=O)[C@H](CO)NC(=O)[C@@H]1CCCN1C(=O)[C@@H]1CCC(=O)N1)C(=O)N[C@@H](CCSC)C(=O)N[C@@H](CO)C(=O)N[C@@H](Cc1ccccc1)C(N)=O
B6: 1835[φ2]wp-4 (peptide)
peptide: SDD[sY]GHMRF-NH2
modifications: N-terminus assumed
SMILES: CSCC[C@H](NC(=O)[C@H](Cc1c[nH]cn1)NC(=O)CNC(=O)[C@H](Cc1ccc(OS(=O)(=O)O)cc1)NC(=O)[C@H](CC(=O)O)NC(=O)[C@H](CC(=O)O)NC(=O)[C@@H](N)CO)C(=O)N[C@@H](CCCNC(=N)N)C(=O)N[C@@H](Cc1ccccc1)C(N)=O
B7: 2009[φ1]wp-1 (peptide)
peptide: DDYGHMRF-NH2
modifications: ends and bridges not checked
B8: 1432-2[φ]wp-6 (peptide)
peptide: SPVDYDRPIMAF-NH2
B9: 2011[φ1]wp-1 (peptide)
peptide: YGHMRF-NH2
modifications: ends and bridges not checked
B10: 2076[φ1]wp-2 (peptide)
peptide: FDDYGHMR-NH2
modifications: ends and bridges not checked
B11: 2053[φ1]wp-4 (peptide)
peptide: GHMRF-NH2
B12: 1678A[φ1]wp-4 (peptide)
peptide: D[sY]RPLQF-NH2
modifications: N-terminus assumed
SMILES: CC(C)C[C@H](NC(=O)[C@@H]1CCCN1C(=O)[C@H](CCCNC(=N)N)NC(=O)[C@H](Cc1ccc(OS(=O)(=O)O)cc1)NC(=O)[C@@H](N)CC(=O)O)C(=O)N[C@@H](CCC(N)=O)C(=O)N[C@@H](Cc1ccccc1)C(N)=O
B13: sulfated SK from the migratory locust, Locusta migratoria (peptide)
peptide: [pGlu]LASDDY(SO3H)GHMRF-NH2
SMILES: CSCC[C@H](NC(=O)[C@H](Cc1c[nH]cn1)NC(=O)CNC(=O)[C@H](Cc1ccc(OS(=O)(=O)O)cc1)NC(=O)[C@H](CC(=O)O)NC(=O)[C@H](CC(=O)O)NC(=O)[C@H](CO)NC(=O)[C@H](C)NC(=O)[C@H](CC(C)C)NC(=O)[C@@H]1CCC(=O)N1)C(=O)N[C@@H](CCCNC(=N)N)C(=O)N[C@@H](Cc1ccccc1)C(N)=O
B14: 2052[φ1]wp-3 (peptide)
peptide: HMRF-NH2
B15: sulfated C-terminal fragment of T. castaneum SK comprising amino acids 5–13 (peptide)
peptide: FDDY(SO3H)GHMRF-NH2
modifications: N-terminus assumed
SMILES: CSCC[C@H](NC(=O)[C@H](Cc1c[nH]cn1)NC(=O)CNC(=O)[C@H](Cc1ccc(OS(=O)(=O)O)cc1)NC(=O)[C@H](CC(=O)O)NC(=O)[C@H](CC(=O)O)NC(=O)[C@@H](N)Cc1ccccc1)C(=O)N[C@@H](CCCNC(=N)N)C(=O)N[C@@H](Cc1ccccc1)C(N)=O
B16: 2008[φ1]wp-2 (peptide)
peptide: FDDAGHMRF-NH2

In one experiment the target is Tribolium castaneum sulfakinin receptor 1 (T. castaneum).
Molecule B1 had an aequorin bioluminescence in CHO-WTA11 cells transfected with the receptor, peptide at 1 μM, % of the response to 1 μM sTrica-SK(5–13) of 23.6%.

As to B2, the aequorin bioluminescence in CHO-WTA11 cells transfected with the receptor, peptide at 1 μM, % of the response to 1 μM sTrica-SK(5–13) is 28.5%.

B3 displayed an aequorin bioluminescence in CHO-WTA11 cells transfected with the receptor, peptide at 1 μM, % of the response to 1 μM sTrica-SK(5–13) of 6.2%.

Molecule B4 had an aequorin bioluminescence in CHO-WTA11 cells transfected with the receptor, peptide at 1 μM, % of the response to 1 μM sTrica-SK(5–13) of 7.6%.

As to B5, the aequorin bioluminescence in CHO-WTA11 cells transfected with the receptor, peptide at 1 μM, % of the response to 1 μM sTrica-SK(5–13) was found to be 16.5%.

Turning to B6, the aequorin bioluminescence in CHO-WTA11 cells transfected with the receptor, peptide at 1 μM, % of the response to 1 μM sTrica-SK(5–13) came out at 58.2%.

For B7, the aequorin bioluminescence in CHO-WTA11 cells transfected with the receptor, peptide at 1 μM, % of the response to 1 μM sTrica-SK(5–13) turned out to be 27.2%.

B8 showed an aequorin bioluminescence in CHO-WTA11 cells transfected with the receptor, peptide at 1 μM, % of the response to 1 μM sTrica-SK(5–13) of 16.4%.

The molecule B9 returned an aequorin bioluminescence in CHO-WTA11 cells transfected with the receptor, peptide at 1 μM, % of the response to 1 μM sTrica-SK(5–13) of 26.3%.

Take B10: the aequorin bioluminescence in CHO-WTA11 cells transfected with the receptor, peptide at 1 μM, % of the response to 1 μM sTrica-SK(5–13) was 25.8%.

Consider B11, for which the aequorin bioluminescence in CHO-WTA11 cells transfected with the receptor, peptide at 1 μM, % of the response to 1 μM sTrica-SK(5–13) came to 13.3%.

As to B12, the aequorin bioluminescence in CHO-WTA11 cells transfected with the receptor, peptide at 1 μM, % of the response to 1 μM sTrica-SK(5–13) worked out at 40.8%.

B13 came in with an aequorin bioluminescence in CHO-WTA11 cells transfected with the receptor, peptide at 1 μM, % of the response to 1 μM sTrica-SK(5–13) of 75%.

B14 had an aequorin bioluminescence in CHO-WTA11 cells transfected with the receptor, peptide at 1 μM, % of the response to 1 μM sTrica-SK(5–13) of 43.4%.

B15 showed an aequorin bioluminescence in CHO-WTA11 cells transfected with the receptor, peptide at 1 μM, % of the response to 1 μM sTrica-SK(5–13) (this peptide is the 100% reference) of 100%.

In turn, B16 had an aequorin bioluminescence in CHO-WTA11 cells transfected with the receptor, peptide at 1 μM, % of the response to 1 μM sTrica-SK(5–13) of 10.1%.

The next experiment has as its target Tribolium castaneum sulfakinin receptor 2 (T. castaneum).
B1 showed an aequorin bioluminescence in CHO-WTA11 cells transfected with the receptor, peptide at 1 μM, % of the response to 1 μM sTrica-SK(5–13) of 33.7%.

Molecule B2 had an aequorin bioluminescence in CHO-WTA11 cells transfected with the receptor, peptide at 1 μM, % of the response to 1 μM sTrica-SK(5–13) of 19.9%.

The molecule B3 displayed an aequorin bioluminescence in CHO-WTA11 cells transfected with the receptor, peptide at 1 μM, % of the response to 1 μM sTrica-SK(5–13) of 13.4%.

As to B4, the aequorin bioluminescence in CHO-WTA11 cells transfected with the receptor, peptide at 1 μM, % of the response to 1 μM sTrica-SK(5–13) worked out at 8.6%.

The molecule B5 yielded an aequorin bioluminescence in CHO-WTA11 cells transfected with the receptor, peptide at 1 μM, % of the response to 1 μM sTrica-SK(5–13) of 16.6%.

B6: the aequorin bioluminescence in CHO-WTA11 cells transfected with the receptor, peptide at 1 μM, % of the response to 1 μM sTrica-SK(5–13) is 41.4%.

The molecule B7 registered an aequorin bioluminescence in CHO-WTA11 cells transfected with the receptor, peptide at 1 μM, % of the response to 1 μM sTrica-SK(5–13) of 17.1%.

As for B8, the aequorin bioluminescence in CHO-WTA11 cells transfected with the receptor, peptide at 1 μM, % of the response to 1 μM sTrica-SK(5–13) amounted to 11.2%.

Molecule B9 registered an aequorin bioluminescence in CHO-WTA11 cells transfected with the receptor, peptide at 1 μM, % of the response to 1 μM sTrica-SK(5–13) of 21.2%.

B10: the aequorin bioluminescence in CHO-WTA11 cells transfected with the receptor, peptide at 1 μM, % of the response to 1 μM sTrica-SK(5–13) was determined as 19.7%.

Turning to B11, the aequorin bioluminescence in CHO-WTA11 cells transfected with the receptor, peptide at 1 μM, % of the response to 1 μM sTrica-SK(5–13) worked out at 44.6%.

Molecule B12 returned an aequorin bioluminescence in CHO-WTA11 cells transfected with the receptor, peptide at 1 μM, % of the response to 1 μM sTrica-SK(5–13) of 32.6%.

In turn, B13 gave an aequorin bioluminescence in CHO-WTA11 cells transfected with the receptor, peptide at 1 μM, % of the response to 1 μM sTrica-SK(5–13) of 79.9%.

The molecule B14 returned an aequorin bioluminescence in CHO-WTA11 cells transfected with the receptor, peptide at 1 μM, % of the response to 1 μM sTrica-SK(5–13) of 33.4%.

Take B15: the aequorin bioluminescence in CHO-WTA11 cells transfected with the receptor, peptide at 1 μM, % of the response to 1 μM sTrica-SK(5–13) (this peptide is the 100% reference) was 100%.

For the molecule B16, the aequorin bioluminescence in CHO-WTA11 cells transfected with the receptor, peptide at 1 μM, % of the response to 1 μM sTrica-SK(5–13) stood at 12.1%.

The next experiment has as its target Tribolium castaneum sulfakinin receptor 1 (T. castaneum). The source holds these as a separate data set.
B15 showed an EC50 of CRE-luciferase bioluminescence (cAMP) in HEK293T cells cotransfected with the receptor of 0.0049 nM.

A further experiment deals with Tribolium castaneum sulfakinin receptor 2 (T. castaneum). This is another data set of the same source.
The molecule B15 displayed an EC50 of CRE-luciferase bioluminescence (cAMP) in HEK293T cells cotransfected with the receptor of 1.4 nM.

The target in another experiment is Tribolium castaneum sulfakinin receptor 1 (T. castaneum). The source holds these as a separate data set.
Take B15: the EC50 of aequorin bioluminescence (Ca2+) in CHO-PAM28 cells (no Gα16) transfected with the receptor was 0.0585 nM.

The target of another experiment is Tribolium castaneum sulfakinin receptor 2 (T. castaneum). This is another data set of the same source.
Turning to B15, the EC50 of aequorin bioluminescence (Ca2+) in CHO-PAM28 cells (no Gα16) transfected with the receptor was found to be 1.61 nM.

For another experiment, the target named is Tribolium castaneum sulfakinin receptor 1 (T. castaneum). The source holds these as a separate data set.
In the case of B13, the EC50 of aequorin bioluminescence (Ca2+) in CHO-WTA11 cells (Gα16) transfected with the receptor, peptide 1 fM to 1 μM worked out at 16.8 nM.

The molecule B15 yielded an EC50 of aequorin bioluminescence (Ca2+) in CHO-WTA11 cells (Gα16) transfected with the receptor, peptide 1 fM to 1 μM of 0.0995 nM.

In a further experiment the target is Tribolium castaneum sulfakinin receptor 2 (T. castaneum). This is another data set of the same source.
B13 showed an EC50 of aequorin bioluminescence (Ca2+) in CHO-WTA11 cells (Gα16) transfected with the receptor, peptide 1 fM to 1 μM of 776 nM.

The molecule B15 displayed an EC50 of aequorin bioluminescence (Ca2+) in CHO-WTA11 cells (Gα16) transfected with the receptor, peptide 1 fM to 1 μM of 0.524 nM.
